Measurements as given in patent US6395526B1, “DNA polymerase” (Takara Shuzo Co., Ltd., priority 1995, dated 2002).

T1: second DNA polymerase-constituting protein (translation product of ORF4) (Pyrococcus furiosus, UniProt P81409 1-1263)
T1 construct: Subunit of the two-protein DNA polymerase from Pyrococcus furiosus DSM3638; Expressed in E. coli, either together with ORF3 from pFU1001 or alone from pFU-ORF4; About 140,000 Da on SDS-PAGE; also called ORF4 translation product; ORF4-derived translation product
T1 sequence: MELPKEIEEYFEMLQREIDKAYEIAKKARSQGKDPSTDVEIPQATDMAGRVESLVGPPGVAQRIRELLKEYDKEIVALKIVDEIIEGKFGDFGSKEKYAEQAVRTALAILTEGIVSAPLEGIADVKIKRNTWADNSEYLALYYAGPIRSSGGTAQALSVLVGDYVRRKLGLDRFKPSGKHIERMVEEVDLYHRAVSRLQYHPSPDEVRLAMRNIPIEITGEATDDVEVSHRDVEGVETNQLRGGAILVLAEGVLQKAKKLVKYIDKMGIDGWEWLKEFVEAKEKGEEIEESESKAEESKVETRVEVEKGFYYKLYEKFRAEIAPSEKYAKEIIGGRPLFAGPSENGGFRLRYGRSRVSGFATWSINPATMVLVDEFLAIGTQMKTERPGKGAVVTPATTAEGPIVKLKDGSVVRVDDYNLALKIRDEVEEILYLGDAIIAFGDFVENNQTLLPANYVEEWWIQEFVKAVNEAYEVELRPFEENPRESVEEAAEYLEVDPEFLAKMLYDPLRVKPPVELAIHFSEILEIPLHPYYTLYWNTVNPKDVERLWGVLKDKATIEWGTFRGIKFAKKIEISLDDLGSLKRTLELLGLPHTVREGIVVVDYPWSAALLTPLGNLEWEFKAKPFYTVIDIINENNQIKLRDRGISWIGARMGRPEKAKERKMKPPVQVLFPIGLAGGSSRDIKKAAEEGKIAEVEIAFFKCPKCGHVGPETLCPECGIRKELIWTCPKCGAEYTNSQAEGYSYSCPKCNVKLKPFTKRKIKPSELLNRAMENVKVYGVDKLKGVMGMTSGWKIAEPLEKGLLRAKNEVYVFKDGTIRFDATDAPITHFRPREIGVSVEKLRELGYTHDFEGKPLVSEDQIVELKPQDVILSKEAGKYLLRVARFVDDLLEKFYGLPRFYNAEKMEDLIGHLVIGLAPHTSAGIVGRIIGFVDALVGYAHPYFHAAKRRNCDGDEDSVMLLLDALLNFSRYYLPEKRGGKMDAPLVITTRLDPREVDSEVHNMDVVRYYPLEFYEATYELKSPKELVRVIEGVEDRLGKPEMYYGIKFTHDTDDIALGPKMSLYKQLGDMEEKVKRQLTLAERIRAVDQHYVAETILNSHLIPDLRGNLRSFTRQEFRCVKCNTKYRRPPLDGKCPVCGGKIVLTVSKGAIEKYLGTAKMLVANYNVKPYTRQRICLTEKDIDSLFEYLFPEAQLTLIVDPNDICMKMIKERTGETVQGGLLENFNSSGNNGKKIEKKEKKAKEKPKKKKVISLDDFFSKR

T2: second DNA polymerase-constituting protein (translation product of ORF4)
T2 chain: T1 sequence

B1: first DNA polymerase-constituting protein (translation product of ORF3) (enzyme)
chain: MDEFVKSLLKANYLITPSAYYLLREYYEKGEFSIVELVKFARSRESYIITDALATEFLKVKGLEPILPVETKGGFVSTGESQKEQSYEESFGTKEEISQEIKEGESFISTGSEPLEEELNSIGIEEIGANEELVSNGNDNGGEAIVFDKYGYPMVYAPEEIEVEEKEYSKYEDLTIPMNPDFNYVEIKEDYDVVFDVRNVKLKPPKVKNGNGKEGEIIVEAYASLFRSRLKKLRKILRENPELDNVVDIGKLKYVKEDETVTIIGLVNSKREVNKGLIFEIEDLTGKVKVFLPKDSEDYREAFKVLPDAVVAFKGVYSKRGILYANKFYLPDVPLYRRQKPPLEEKVYAILISDIHVGSKEFCENAFIKFLEWLNGNVETKEEEEIVSRVKYLIIAGDVVDGVGVYPGQYADLTIPDIFDQYEALANLLSHVPKHITMFIAPGNHDAARQAIPQPEFYKEYAKPIYKLKNAVIISNPAVIRLHGRDFLIAHGRGIEDVVGSVPGLTHHKPGLPMVELLKMRHVAPMFGGKVPIAPDPEDLLVIEEVPDVVHMGHVHVYDAVVYRGVQLVNSATWQAQTEFQKMVNIVPTPAKVPVVDIDTAKVVKVLDFSGWC
notes: Subunit of the two-protein DNA polymerase from Pyrococcus furiosus DSM3638; Expressed in E. coli, either together with ORF4 from pFU1001 or alone from pFU-ORF3; About 90,000 Da on SDS-PAGE; also called ORF3 translation product; ORF3-derived translation product
B2: Pfu DNA Polymerase: α-type DNA polymerase derived from Pyrococcus furiousus, manufactured by Stratagene (protein, UniProt P61875 1-775, looked up)
DNA polymerase: MILDVDYITEEGKPVIRLFKKENGKFKIEHDRTFRPYIYALLRDDSKIEEVKKITGERHGKIVRIVDVEKVEKKFLGKPITVWKLYLEHPQDVPTIREKVREHPAVVDIFEYDIPFAKRYLIDKGLIPMEGEEELKILAFDIETLYHEGEEFGKGPIIMISYADENEAKVITWKNIDLPYVEVVSSEREMIKRFLRIIREKDPDIIVTYNGDSFDFPYLAKRAEKLGIKLTIGRDGSEPKMQRIGDMTAVEVKGRIHFDLYHVITRTINLPTYTLEAVYEAIFGKPKEKVYADEIAKAWESGENLERVAKYSMEDAKATYELGKEFLPMEIQLSRLVGQPLWDVSRSSTGNLVEWFLLRKAYERNEVAPNKPSEEEYQRRLRESYTGGFVKEPEKGLWENIVYLDFRALYPSIIITHNVSPDTLNLEGCKNYDIAPQVGHKFCKDIPGFIPSLLGHLLEERQKIKTKMKETQDPIEKILLDYRQKAIKLLANSFYGYYGYAKARWYCKECAESVTAWGRKYIELVWKELEEKFGFKVLYIDTDGLYATIPGGESEEIKKKALEFVKYINSKLPGLLELEYEGFYKRGFFVTKKRYAVIDEEGKVITRGLEIVRRDWSEIAKETQARVLETILKHGDVEEAVRIVKEVIQKLANYEIPPEKLAIYEQITRPLHEYKAIGPHVAVAKKLAAKGVKIKPGMVIGYIVLRGDGPISNRAILAEEYDPKKHKYDAEYYIENQVLPAVLRILEGFGYRKEDLRYQKTRQVGLTSWLNIKKS

Columns and labels:
[1] = molecular target: T1, second DNA polymerase-constituting …; test: gel filtration (Superose 6) of the co-expressed, purified polymerase; activity peaks at about 385 kDa and about 220 kDa
Protocol: Ten milliliters of an enzyme solution obtained by collecting as an active fraction was desalted and concentrated by ultrafiltration, and dissolved in buffer A+150 mM NaCl to yield 3.5 ml of an enzyme solution. The resulting enzyme solution was then applied to a Hi Trap Heparin column (manufactured by Pharmacia), previously equilibrated with the same buffer. A chromatogram was developed on a linear concentration gradient from 150 to 650 mM NaCl using an FPLC system, to yield an active fraction eluted at 400 mM NaCl. Five milliliters of this fraction was concentrated to 120 µl of a solution including 50 mM potassium phosphate, pH 6.5, 2 mM 2-mercaptoethanol, and 75 mM NaCl by repeating desalting and concentration using ultrafiltration. The resulting concentrated solution was then applied to a gel filtration column of Superose 6 (manufactured by Pharmacia), previously equilibrated with the same buffer, and eluted with the same buffer. As a result, a fraction having a DNA polymerase activity was eluted at positions corresponding to retention times of 34.7 minutes and 38.3 minutes. […] These molecular weights corresponded to a complex formed by the translation product of ORF3 and the translation product of ORF4 in a molar ratio of 1:2 and another complex formed by the above translation products in a molar ratio of 1:1, respectively. […]

[2] = molecular target: T2, second DNA polymerase-constituting …
λ-DNA = conditions: reported, enzyme used alone; cited from earlier work
M13-HT Primer = test: Primer extension reaction (autoradiogram, FIG. 6); type: biochemical; conditions: activated DNA added in great excess
Protocol: The primer extension activity was further investigated extensively. The M13-HT Primer, previously labeled with [γ-^32P]-ATP (manufactured by Amersham) and T4 polynucleotide kinase (manufactured by Takara Shuzo Co., Ltd.) at the 5′-end, was used as a substrate. Ten microliters of a reaction mixture [20 mM Tris-HCl (pH 7.7), 15 mM MgCl2, 2 mM 2-mercaptoethanol, 270 μM each of dATP, dGTP, dCTP and dTTP] containing the above substrate in a final concentration of […] and various DNA polymerases in amounts providing 0.05 units of activity as assayed with the activated DNA as a substrate was reacted at 75° C. for 1, 2, 3, or 4 minutes. After termination of the reaction, 2 μl of a reaction stop solution (95% […], 20 mM EDTA, 0.05% bromophenol blue, 0.05% xylenecyanol) was added, subjected to thermal denaturation treatment at 95° C. for 3 minutes. Two microliters of the reaction mixture was then subjected to electrophoresis using polyacrylamide gel containing 8 M urea and subsequently subjected to a preparation of autoradiogram. Also, in order to examine the extension activity in the presence of the activated DNA as a competitor substrate, the activated DNA was added to the above reaction mixture to a final concentration of […], and subjected to a preparation of an autoradiogram by the same procedures as described above.
In the figure, Pol, Pfu, and Taq show the results for the DNA polymerase of the present invention, the Pfu DNA polymerase and the Taq DNA polymerase, respectively. In addition, 1, 2, 3, and 4 each indicates reaction time (min). In the figure, the representation “−” and “+” show the results obtained in the absence and in the presence, respectively, of the activated DNA. The lanes G, A, T, and C at the left end of the figure also show the results of electrophoresis of the reaction products obtained by a chain termination reaction by the dideoxy method using the same substrate as above, which were used to estimate the length of each extension product.

[3] = tested on: substrate DNA (template-primer); test: DNA polymerase activity on different forms of substrate DNA (template-primer); type: biochemical
Protocol: The DNA polymerase activity was assayed using calf thymus DNA (manufactured by Worthington) activated by DNase I treatment (activated DNA) as a substrate. DNA activation and assay of DNA polymerase activity were carried out by the method described in DNA Polymerase from Escherichia coli, 263-276 (authored by C. C. Richardson), published by Harper & Row, edited by D. R. Davis.
An assay of enzyme activity was carried out by the following method. Specifically, 50 μl of a reaction solution [20 mM Tris-HCl (pH 7.7), 15 mM MgCl2, 2 mM 2-mercaptoethanol, 0.2 mg/ml activated DNA, 40 μM each of dATP, dCTP, dGTP and dTTP, 60 nM [^3H]-dTTP (manufactured by Amersham)], containing a sample for assaying its activity, was prepared and reacted at 75° C. for 15 minutes. A 40 μl portion of this reaction mixture was then spotted onto a DE paper (manufactured by Whatman) and washed with 5% Na2HPO4 five times. The remaining radioactivity on the DE paper was assayed using a liquid scintillation counter. The amount of enzyme which incorporated 10 nmol of [^3H]-dTMP per 30 minutes into the substrate DNA, assayed by the above-described enzyme activity assay method, was defined as one unit of the enzyme.
Next, in order to compare the selectivity of the DNA polymerase of the present invention for different forms of substrate DNA, the following template-primer was examined. Aside from the activated DNA used for conventional assay of the activity, those prepared as substrates include a thermal-denatured DNA prepared by treating the activated DNA at 85° C. for 5 minutes; M13-HT Primer prepared by annealing a 45-base synthetic deoxyribooligonucleotide of the sequence as shown by SEQ ID NO:6 in Sequence Listing as a primer to the M13 phage single stranded DNA (M13mp18 ssDNA, manufactured by Takara Shuzo Co., Ltd.); M13-RNA Primer prepared by annealing a 17-base synthetic ribooligonucleotide of the sequence as shown by SEQ ID NO:7 in Sequence Listing as a primer to the same M13 phage single stranded DNA; Poly dA-Oligo dT prepared by mixing polydeoxyadenosine (Poly dA, manufactured by Pharmacia) and oligodeoxythymidine (Oligo dT, manufactured by Pharmacia) in a 20:1 molar ratio; and Poly A-Oligo dT prepared by mixing polyadenosine (Poly A, manufactured by Pharmacia) and oligodeoxythymidine in a 20:1 molar ratio.
The DNA polymerase activity was assayed using these substrates in place of the activated DNA. The relative activity of each substrate when the activity obtained in the case of using an activated DNA as a substrate is defined as 100 is shown in Table 1. For comparison, the Pfu DNA polymerase and the Taq DNA polymerase derived from Thermus aquaticus (TaKaRa Taq, manufactured by Takara Shuzo Co., Ltd.) were also examined in the same manner.

Molecule | binding result [1] | thermostable DNA polymerase activity [2] | strand length of DNA amplifiable by PCR (λ-DNA) | inhibition of primer extension by activated DNA as competitor substrate (M13-HT Primer) | Relative Activity ([3]; substrate M13-HT primer, activated DNA = 100) | Relative Activity ([3]; substrate M13-RNA primer, activated DNA = 100) | Relative Activity ([3]; substrate activated DNA (defined as 100)) | Relative Activity ([3]; substrate poly dA-Oligo dT, activated DNA = 100) | Relative Activity ([3]; substrate thermal-denatured DNA, activated DNA = 100)
B1 | binds | although neither of the ORF translation products thus purified exhibited the DNA polymerase activity when assayed alone, thermostable DNA polymerase activity was exhibited when they were mixed together |  |  |  |  |  |  | 
B2 |  |  | at most 3 kbp | strongly inhibited | 23 | 0.49 | 100 | 390 | 87
